Test results: US20220064329A1 (Novo Nordisk, published 2022)

T1: recombinant human activated Factor VII (FVIIa) (human, UniProt P08709 61-212; P08709 213-466, ten glutamate residues of the Gla domain may be gamma-carboxylated)
T1 construct: chains tethered by a disulfide bond; also called Factor VIIa; rFVIIa
T1 sequence 1: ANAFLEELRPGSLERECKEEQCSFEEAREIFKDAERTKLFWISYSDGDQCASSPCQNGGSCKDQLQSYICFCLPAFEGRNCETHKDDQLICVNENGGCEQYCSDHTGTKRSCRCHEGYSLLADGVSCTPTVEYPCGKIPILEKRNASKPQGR
T1 sequence 2: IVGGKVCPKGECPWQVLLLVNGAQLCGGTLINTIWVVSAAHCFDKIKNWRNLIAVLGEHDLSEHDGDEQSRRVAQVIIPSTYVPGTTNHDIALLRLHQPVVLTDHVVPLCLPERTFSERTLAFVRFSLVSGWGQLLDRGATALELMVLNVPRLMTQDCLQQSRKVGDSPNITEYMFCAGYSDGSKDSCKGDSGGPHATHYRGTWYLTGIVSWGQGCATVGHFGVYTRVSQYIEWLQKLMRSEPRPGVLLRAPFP


Target: T1, recombinant human activated Factor VII …
Assay: BLI (Fortebio)

Binder	Kd [nM]
VH SEQ ID NO 554 / VL SEQ ID NO 334 (antibody, IgG4, V domains shown, humanized 11F2; IgG4 S228P/kappa) VH: QVQLQESGPGLVKPSDTLSLTCAVSGYSISSDSAWSWIRQFPGKGLEWIGYIQYSGSTNYNPSLKSRVTMSVDTSKNQFSLKLSSVTALDTAVYYCARSVNYYGNSFAVGPWGQGTLVTVSS VL: EIVLTQSPATLSLSPGERATLSCRASQGISDYLHWYQQKPGQAPRLLIKYASQPATGIPARFSGSGSGTDFTLTISSLEPEDFAVYYCQNGHSFPLTFGQGTKLEIK	18
VH SEQ ID NO 554 / VL SEQ ID NO 494 (antibody, IgG4, V domains shown, humanized 11F2; IgG4 S228P/kappa) VH: QVQLQESGPGLVKPSDTLSLTCAVSGYSISSDSAWSWIRQFPGKGLEWIGYIQYSGSTNYNPSLKSRVTMSVDTSKNQFSLKLSSVTALDTAVYYCARSVNYYGNSFAVGPWGQGTLVTVSS VL: EIVLTQSPATLSLSPGERATLSCRASQGVSDYLHWYQQKPGQAPRLLIKYASQPATGIPARFSGSGSGTDFTLTISSLEPEDVAVYYCQNGHSFPLTFGQGTKLEIK	22
VH SEQ ID NO 554 / VL SEQ ID NO 342 (antibody, IgG4, V domains shown, humanized 11F2; IgG4 S228P/kappa) VH: QVQLQESGPGLVKPSDTLSLTCAVSGYSISSDSAWSWIRQFPGKGLEWIGYIQYSGSTNYNPSLKSRVTMSVDTSKNQFSLKLSSVTALDTAVYYCARSVNYYGNSFAVGPWGQGTLVTVSS VL: EIVLTQSPATLSLSPGERATLSCRASQGISDYLHWYQQKPGQAPRLLIKYTSQPATGIPARFSGSGSGRDFTLTISSLEPEDFAVYYCQNGHSFPLTFGAGTKLELK	23
VH SEQ ID NO 562 / VL SEQ ID NO 342 (antibody, IgG4, V domains shown, humanized 11F2; IgG4 S228P/kappa) VH: QVQLQESGPGLVKPSDTLSLTCAVSGYSISSDSAWSWIRQPPGKGLEWIGYIQYSGSTNYNPSLKSRVTMSRDTSKNQFSLKLSSVTALDTAVYYCARSVNYYGNSFAVGPWGQGTLVTVSS VL: EIVLTQSPATLSLSPGERATLSCRASQGISDYLHWYQQKPGQAPRLLIKYTSQPATGIPARFSGSGSGRDFTLTISSLEPEDFAVYYCQNGHSFPLTFGAGTKLELK	1.3
VH SEQ ID NO 562 / VL SEQ ID NO 358 (antibody, IgG4, V domains shown, humanized 11F2; IgG4 S228P/kappa) VH: QVQLQESGPGLVKPSDTLSLTCAVSGYSISSDSAWSWIRQPPGKGLEWIGYIQYSGSTNYNPSLKSRVTMSRDTSKNQFSLKLSSVTALDTAVYYCARSVNYYGNSFAVGPWGQGTLVTVSS VL: EIVLTQSPATLSLSPGERATLSCRASQGISDYLHWYQQKPGQAPRLLIKYTSQPATGIPARFSGSGSGTDFTLTISSLEPEDFAVYYCQNGHSFPLTFGQGTKLEIK	0.95
VH SEQ ID NO 562 / VL SEQ ID NO 318 (antibody, IgG4, V domains shown, humanized 11F2; IgG4 S228P/kappa) VH: QVQLQESGPGLVKPSDTLSLTCAVSGYSISSDSAWSWIRQPPGKGLEWIGYIQYSGSTNYNPSLKSRVTMSRDTSKNQFSLKLSSVTALDTAVYYCARSVNYYGNSFAVGPWGQGTLVTVSS VL: EIVLTQSPATLSLSPGERATLSCRASQGISDYLHWYQQKPGEAPRLLIKYTSQPATGIPARFSGSGSGTDFTLTISSLEPEDFAVYYCQNGHSFPLTFGQGTKLEIK	0.92
VH SEQ ID NO 554 / VL SEQ ID NO 502 (antibody, IgG4, V domains shown, humanized 11F2; IgG4 S228P/kappa) VH: QVQLQESGPGLVKPSDTLSLTCAVSGYSISSDSAWSWIRQFPGKGLEWIGYIQYSGSTNYNPSLKSRVTMSVDTSKNQFSLKLSSVTALDTAVYYCARSVNYYGNSFAVGPWGQGTLVTVSS VL: EIVLTQSPATLSLSPGERATLSCRASQGVSDYLHWYQQKPGQAPRLLIKYTSQPATGIPARFSGSGSGTDFTLTISSLEPEDFAVYYCQNGHSFPLTFGQGTKLEIK	18
VH SEQ ID NO 554 / VL SEQ ID NO 454 (antibody, IgG4, V domains shown, humanized 11F2; IgG4 S228P/kappa) VH: QVQLQESGPGLVKPSDTLSLTCAVSGYSISSDSAWSWIRQFPGKGLEWIGYIQYSGSTNYNPSLKSRVTMSVDTSKNQFSLKLSSVTALDTAVYYCARSVNYYGNSFAVGPWGQGTLVTVSS VL: EIVLTQSPATLSLSPGERATLSCRASQGVSDYLHWYQQKPGEAPRLLIKYASQPATGIPARFSGSGSGTDFTLTISSLEPEDFAVYYCQNGHSFPLTFGQGTKLEIK	19
VH SEQ ID NO 562 / VL SEQ ID NO 334 (antibody, IgG4, V domains shown, humanized 11F2; IgG4 S228P/kappa) VH: QVQLQESGPGLVKPSDTLSLTCAVSGYSISSDSAWSWIRQPPGKGLEWIGYIQYSGSTNYNPSLKSRVTMSRDTSKNQFSLKLSSVTALDTAVYYCARSVNYYGNSFAVGPWGQGTLVTVSS VL: EIVLTQSPATLSLSPGERATLSCRASQGISDYLHWYQQKPGQAPRLLIKYASQPATGIPARFSGSGSGTDFTLTISSLEPEDFAVYYCQNGHSFPLTFGQGTKLEIK	1.2
VH SEQ ID NO 562 / VL SEQ ID NO 326 (antibody, IgG4, V domains shown, humanized 11F2; IgG4 S228P/kappa) VH: QVQLQESGPGLVKPSDTLSLTCAVSGYSISSDSAWSWIRQPPGKGLEWIGYIQYSGSTNYNPSLKSRVTMSRDTSKNQFSLKLSSVTALDTAVYYCARSVNYYGNSFAVGPWGQGTLVTVSS VL: EIVLTQSPATLSLSPGERATLSCRASQGISDYLHWYQQKPGEAPRLLIKYTSQPATGIPARFSGSGSGTDFTLTISSLEPEDFGVYYCQNGHSFPLTFGAGTKLELK	0.78
VH SEQ ID NO 554 / VL SEQ ID NO 486 (antibody, IgG4, V domains shown, humanized 11F2; IgG4 S228P/kappa) VH: QVQLQESGPGLVKPSDTLSLTCAVSGYSISSDSAWSWIRQFPGKGLEWIGYIQYSGSTNYNPSLKSRVTMSVDTSKNQFSLKLSSVTALDTAVYYCARSVNYYGNSFAVGPWGQGTLVTVSS VL: EIVLTQSPATLSLSPGERATLSCRASQGVSDYLHWYQQKPGQAPRLLIKYASQPATGIPARFSGSGSGTDFTLTISSLEPEDFGVYYCQNGHSFPLTFGQGTKLEIK	19
VH SEQ ID NO 554 / VL SEQ ID NO 470 (antibody, IgG4, V domains shown, humanized 11F2; IgG4 S228P/kappa) VH: QVQLQESGPGLVKPSDTLSLTCAVSGYSISSDSAWSWIRQFPGKGLEWIGYIQYSGSTNYNPSLKSRVTMSVDTSKNQFSLKLSSVTALDTAVYYCARSVNYYGNSFAVGPWGQGTLVTVSS VL: EIVLTQSPATLSLSPGERATLSCRASQGVSDYLHWYQQKPGQAPRLLIKYASQPATGIPARFSGSGSGTDFTLTISSLEPEDFAVYYCQNGHSFPLTFGQGTKLEIK	19
VH SEQ ID NO 562 / VL SEQ ID NO 366 (antibody, IgG4, V domains shown, humanized 11F2; IgG4 S228P/kappa) VH: QVQLQESGPGLVKPSDTLSLTCAVSGYSISSDSAWSWIRQPPGKGLEWIGYIQYSGSTNYNPSLKSRVTMSRDTSKNQFSLKLSSVTALDTAVYYCARSVNYYGNSFAVGPWGQGTLVTVSS VL: EIVLTQSPATLSLSPGERATLSCRASQGLSDYLAWYQQKPGEAPRLLIKYASQPATGIPARFSGSGSGTDFTLTISSLEPEDFAVYYCQNGHSFPLTFGQGTKLEIK	8.3
VH SEQ ID NO 554 / VL SEQ ID NO 350 (antibody, IgG4, V domains shown, humanized 11F2; IgG4 S228P/kappa) VH: QVQLQESGPGLVKPSDTLSLTCAVSGYSISSDSAWSWIRQFPGKGLEWIGYIQYSGSTNYNPSLKSRVTMSVDTSKNQFSLKLSSVTALDTAVYYCARSVNYYGNSFAVGPWGQGTLVTVSS VL: EIVLTQSPATLSLSPGERATLSCRASQGISDYLHWYQQKPGQAPRLLIKYTSQPATGIPARFSGSGSGTDFTLTISSLEPEDFAVYYCQNGHSFPLTFGAGTKLELK	19
VH SEQ ID NO 554 / VL SEQ ID NO 382 (antibody, IgG4, V domains shown, humanized 11F2; IgG4 S228P/kappa) VH: QVQLQESGPGLVKPSDTLSLTCAVSGYSISSDSAWSWIRQFPGKGLEWIGYIQYSGSTNYNPSLKSRVTMSVDTSKNQFSLKLSSVTALDTAVYYCARSVNYYGNSFAVGPWGQGTLVTVSS VL: EIVLTQSPATLSLSPGERATLSCRASQGLSDYLHWYQQKPGEAPRLLIKYASQPATGIPARFSGSGSGTDFTLTISSLEPEDFAVYYCQNGHSFPLTFGQGTKLEIK	21
VH SEQ ID NO 554 / VL SEQ ID NO 462 (antibody, IgG4, V domains shown, humanized 11F2; IgG4 S228P/kappa) VH: QVQLQESGPGLVKPSDTLSLTCAVSGYSISSDSAWSWIRQFPGKGLEWIGYIQYSGSTNYNPSLKSRVTMSVDTSKNQFSLKLSSVTALDTAVYYCARSVNYYGNSFAVGPWGQGTLVTVSS VL: EIVLTQSPATLSLSPGERATLSCRASQGVSDYLHWYQQKPGQAPRLLIKYASQPATGIPARFSGSGSGTDFTLTISSLEPEDFAVYYCQNGHSFPLTFGAGTKLEIK	20
VH SEQ ID NO 554 / VL SEQ ID NO 478 (antibody, IgG4, V domains shown, humanized 11F2; IgG4 S228P/kappa) VH: QVQLQESGPGLVKPSDTLSLTCAVSGYSISSDSAWSWIRQFPGKGLEWIGYIQYSGSTNYNPSLKSRVTMSVDTSKNQFSLKLSSVTALDTAVYYCARSVNYYGNSFAVGPWGQGTLVTVSS VL: EIVLTQSPATLSLSPGERATLSCRASQGVSDYLHWYQQKPGQAPRLLIKYASQPATGIPARFSGSGSGTDFTLTISSLEPEDFAVYYCQQGHSFPLTFGQGTKLEIK	21
VH SEQ ID NO 554 / VL SEQ ID NO 358 (antibody, IgG4, V domains shown, humanized 11F2; IgG4 S228P/kappa) VH: QVQLQESGPGLVKPSDTLSLTCAVSGYSISSDSAWSWIRQFPGKGLEWIGYIQYSGSTNYNPSLKSRVTMSVDTSKNQFSLKLSSVTALDTAVYYCARSVNYYGNSFAVGPWGQGTLVTVSS VL: EIVLTQSPATLSLSPGERATLSCRASQGISDYLHWYQQKPGQAPRLLIKYTSQPATGIPARFSGSGSGTDFTLTISSLEPEDFAVYYCQNGHSFPLTFGQGTKLEIK	16
VH SEQ ID NO 562 / VL SEQ ID NO 310 (antibody, IgG4, V domains shown, humanized 11F2; IgG4 S228P/kappa) VH: QVQLQESGPGLVKPSDTLSLTCAVSGYSISSDSAWSWIRQPPGKGLEWIGYIQYSGSTNYNPSLKSRVTMSRDTSKNQFSLKLSSVTALDTAVYYCARSVNYYGNSFAVGPWGQGTLVTVSS VL: EIVLTQSPATLSLSPGERATLSCRASQGISDYLAWYQQKPGQAPRLLIKYASQPATGIPARFSGSGSGTDFTLTISSLEPEDFAVYYCQNGHSFPLTFGQGTKLEIK	6.4
VH SEQ ID NO 562 / VL SEQ ID NO 350 (antibody, IgG4, V domains shown, humanized 11F2; IgG4 S228P/kappa) VH: QVQLQESGPGLVKPSDTLSLTCAVSGYSISSDSAWSWIRQPPGKGLEWIGYIQYSGSTNYNPSLKSRVTMSRDTSKNQFSLKLSSVTALDTAVYYCARSVNYYGNSFAVGPWGQGTLVTVSS VL: EIVLTQSPATLSLSPGERATLSCRASQGISDYLHWYQQKPGQAPRLLIKYTSQPATGIPARFSGSGSGTDFTLTISSLEPEDFAVYYCQNGHSFPLTFGAGTKLELK	0.93
